Experimental data reported in patent US8715676B2, “Production and uses of type I ribosome inactivating proteins” (priority 2008, dated 2014).
Read-outs that look alike come from different tables or passages of the source.

Columns and labels:
[1] = tested on: BT 474 human breast cancer cells; test: Cytotoxicity in cancer cells in vitro (TOX8 viability, 72 h); type: cell-based; settings: TB474 (BT 474) cells
Description: (§1) Human breast cancer cells, MDA 231 and BT 474, were grown in tissue culture to assay for the concentration at which 50% of the cells are inhibited from growing (IC50). The cells were seeded in 96-well plates at 5000 cells per well and grown overnight in RPMI 1640 supplemented with 10% fetal bovine serum and 15 μg/ml insulin. The culture medium was replaced. The recombinant cucurmosin, natural cucurmosin and vinblastine were added to the cells at various concentrations. Likewise, the non-cancer cells, LO2 and lymphocytes were treated with these drugs at different concentrations. The cells were grown for an additional 72 hours and then 20 μl of TOX8 was added to each well. The cells were incubated another 8 hours at 37° C., 5% CO2 to allow time for the cells to metabolize the TOX8 indicator. Absorbance readings at 600 nm were taken of each well. Viability was indicated by a drop in absorbance at 600 nm readings.

[2] = tested on: MDA 231 human breast cancer cells; test: as above; type: cell-based
Description: as §1

LO2 non-cancer cells = test: Cytotoxicity in non-cancer cells in vitro (TOX8 viability, 72 h); type: cell-based
Description: as §1

[3] = tested on: lymphocytes (non-cancer cells); test: as above; type: cell-based
Description: as §1

HMEL tumors [4] = test: Treating HMEL tumors in mice, intratumoral injection; type: in vivo, NOD/SCID mice; settings: for Tumor growth: over 18 days
Description: (§2) Human lung cancer cells, […] or A549, were used to induce tumor formation in backs of NOD/SCID mice (JAX, #001303). The cells were maintained in culture. In each experiment, 5 million cells were injected into the back of the mice. Tumors formed in 2 to 3 weeks. Tumor sizes were measured using a digital caliper and then areas calculated.
(§3) In one experiment, either 5 or 50 μg recombinant cucurmosin was injected into the HMEL tumors in 100 μl of saline solution on the days that the tumors were measured. Mouse 2 had tumors in both sides of its back which were each treated separately. Over the 18 day period, the mouse injected with no cucurmosin saw its tumor increase 267% (TABLE 2). […] Mouse 1 and 3 with HMEL tumors after 18 days intratumoral treatment (Table 2), were continually administered recombinant cucurmosin by tail vein injection using 50 μg of recombinant cucurmosin in 100 μl saline solution at day 0 (the same day as day 18 of intratumoral treatment) and day 5. […] The results of these tests are depicted in FIG. 1.

HMEL tumors [5] = test: Treating HMEL tumors in mice by tail vein injection; type: in vivo, NOD/SCID mice
Description: as §2, §3

A549 tumors = test: Treating A549 tumors in mice, intratumoral injection; type: in vivo, NOD/SCID mice; settings: for Tumor growth: Day 1 to Day 11
Description: as §2
In another group of mice, carrying tumors derived from A549 cells, 5 or 50 μg treatments of directly injected recombinant cucurmosin into the tumors was able to reduce tumors by 15 and 33%, respectively while the negative control saw the tumor grow 150% (TABLE 3).

CC[C@]1(O)C[C@@H]2CN(CCc3c([nH]c4ccccc34)[C@@](C(=O)OC)(c3cc4c(cc3OC)N(C)[C@H]3[C@@](O)(C(=O)OC)[C@H](OC(C)=O)[C@]5(CC)C=CCN6CC[C@]43[C@@H]65)C2)C1 [Vinblastine, reference compound]
IC50 ([1]; Homo sapiens): 26 nM | IC50 ([2]; Homo sapiens, MDA-MB-231, MDA231 cells): 25 nM | IC50 (LO2 non-cancer cells): 68 nM | IC50 ([3]; Lymphocyte): 73 nM

B1: Recombinant Cucurmosin: 297 amino acid pro-cucurmosin (SEQ ID 4), type 1 ribosome inactivating protein expressed in E. coli with C-terminal histidine tag (protein, listed as Cucurbita moschata)
chain: MNVRFDLSSATSSSYKTFIKNLREALPKDGKVYDIPVLLSTVMDSRRFILIDLVNYDGQSITAAIDVLNVYIVAYSTGTVSYFFQQVPAQAPKLLFKGTQQRTLPYTGNYENLQTAAKKLRENIELGLPALDSAITTLFHYNAEAAASALLVLIQTTSEAARFRYIELQIANNVGTKFKPSQTIISLENNWSALSKQIQIAKNKNGQFETPVILIDPQGNRVQITNVTSNVVTQNIKLLLNIGATVDTMAANDDVDEMTSGVPIRLSSCGHEMERKSVENGRHANYVSVLEHHHHHH
modifications: C-terminal His tag
IC50 [1]: 22 nM | IC50 ([1]; listed as recombinant cucurmosin): > 20 nM | IC50 ([2]; MDA231 cells): 23 nM | IC50 ([2]; MDA231 cells, listed as recombinant cucurmosin): > 20 nM | IC50 (LO2 non-cancer cells): 1200 nM | IC50 [3]: 2500 nM | Side-effects in mice (HMEL tumors [4]; 5 or 50 μg intratumoral, 18 days): did not suffer any noticeable side-effects | Tumor Size (HMEL tumors [4]; Mouse 2 left, 5 μg intratumoral, Day 1): 39.4 mm^2 | Tumor Size (HMEL tumors [4]; Mouse 2 left, 5 μg intratumoral, Day 3): 33 mm^2 | Tumor Size (HMEL tumors [4]; Mouse 2 left, 5 μg intratumoral, Day 5): 23 mm^2 | Tumor Size (HMEL tumors [4]; Mouse 2 left, 5 μg intratumoral, Day 8): 19.7 mm^2 | Tumor Size (HMEL tumors [4]; Mouse 2 left, 5 μg intratumoral, Day 15): 12.5 mm^2 | Tumor Size (HMEL tumors [4]; Mouse 2 left, 5 μg intratumoral, Day 18): 0 mm^2 | Tumor growth (HMEL tumors [4]; Mouse 2 left, 5 μg intratumoral): −100% | Tumor Size (HMEL tumors [4]; Mouse 2 right, 5 μg intratumoral, Day 1): 27.8 mm^2 | Tumor Size (HMEL tumors [4]; Mouse 2 right, 5 μg intratumoral, Day 3): 24.8 mm^2 | Tumor Size (HMEL tumors [4]; Mouse 2 right, 5 μg intratumoral, Day 5): 18.5 mm^2 | Tumor Size (HMEL tumors [4]; Mouse 2 right, 5 μg intratumoral, Day 8): 12.2 mm^2 | Tumor Size (HMEL tumors [4]; Mouse 2 right, 5 μg intratumoral, Day 15): 0 mm^2 | Tumor Size (HMEL tumors [4]; Mouse 2 right, 5 μg intratumoral, Day 18): 0 mm^2 | Tumor growth (HMEL tumors [4]; Mouse 2 right, 5 μg intratumoral): −100% | Effect on tumor growth compared to the negative control (HMEL tumors [4]; Mouse 3 (largest tumor), 5 μg intratumoral): slow the tumor growth compared to the negative control | Tumor Size (HMEL tumors [4]; Mouse 3, 5 μg intratumoral, Day 1): 162.2 mm^2 | Tumor Size (HMEL tumors [4]; Mouse 3, 5 μg intratumoral, Day 3): 158 mm^2 | Tumor Size (HMEL tumors [4]; Mouse 3, 5 μg intratumoral, Day 5): 151.8 mm^2 | Tumor Size (HMEL tumors [4]; Mouse 3, 5 μg intratumoral, Day 8): 186.7 mm^2 | Tumor Size (HMEL tumors [4]; Mouse 3, 5 μg intratumoral, Day 15): 206.7 mm^2 | Tumor Size (HMEL tumors [4]; Mouse 3, 5 μg intratumoral, Day 18): 231.2 mm^2 | Tumor growth (HMEL tumors [4]; Mouse 3, 5 μg intratumoral): 43% | Tumor Size (HMEL tumors [4]; Mouse 4, 50 μg intratumoral, Day 1): 23.9 mm^2 | Tumor Size (HMEL tumors [4]; Mouse 4, 50 μg intratumoral, Day 3): 12.2 mm^2 | Tumor Size (HMEL tumors [4]; Mouse 4, 50 μg intratumoral, Day 5): 9.4 mm^2 | Tumor Size (HMEL tumors [4]; Mouse 4, 50 μg intratumoral, Day 8): 0 mm^2 | Tumor Size (HMEL tumors [4]; Mouse 4, 50 μg intratumoral, Day 15): 0 mm^2 | Tumor Size (HMEL tumors [4]; Mouse 4, 50 μg intratumoral, Day 18): 0 mm^2 | Tumor growth (HMEL tumors [4]; Mouse 4, 50 μg intratumoral): −100% | Effect on tumors smaller than 40 mm^2 (HMEL tumors [4]; either 5 or 50 μg intratumoral, 18 day period): completely abrogated | Toxic effects on the mice (HMEL tumors [5]; 50 μg tail vein injection): no obvious toxic effects | Tumor size increase (HMEL tumors [5]; Mouse 3, 50 μg tail vein at day 0 and day 5, seven days after initial injection): 7% | Tumor reduction (A549 tumors; 5 μg directly injected into the tumors): 15% | Tumor reduction (A549 tumors; 50 μg directly injected into the tumors): 33% | Tumor Size (A549 tumors; Mouse 2, 5 μg intratumoral, Day 1): 34.7 mm^2 | Tumor growth (A549 tumors; Mouse 2, 5 μg intratumoral): −15% | Tumor Size (A549 tumors; Mouse 2, 5 μg intratumoral, Day 3): 38.8 mm^2 | Tumor Size (A549 tumors; Mouse 2, 5 μg intratumoral, Day 5): 42.4 mm^2 | Tumor Size (A549 tumors; Mouse 2, 5 μg intratumoral, Day 7): 40.8 mm^2 | Tumor Size (A549 tumors; Mouse 2, 5 μg intratumoral, Day 9): 39.5 mm^2 | Tumor Size (A549 tumors; Mouse 2, 5 μg intratumoral, Day 11): 29.5 mm^2 | Tumor Size (A549 tumors; Mouse 3, 50 μg intratumoral, Day 1): 100.6 mm^2 | Tumor growth (A549 tumors; Mouse 3, 50 μg intratumoral): −33% | Tumor Size (A549 tumors; Mouse 3, 50 μg intratumoral, Day 3): 104.1 mm^2 | Tumor Size (A549 tumors; Mouse 3, 50 μg intratumoral, Day 5): 108.6 mm^2 | Tumor Size (A549 tumors; Mouse 3, 50 μg intratumoral, Day 7): 113.1 mm^2 | Tumor Size (A549 tumors; Mouse 3, 50 μg intratumoral, Day 9): 78.8 mm^2 | Tumor Size (A549 tumors; Mouse 3, 50 μg intratumoral, Day 11): 67.3 mm^2
